Measurements from US20190153061A1.

B1: BCMA-12 CAR (139111) (protein)
chain: EVQLLESGGGLVQPGGSLRLSCAVSGFALSNHGMSWVRRAPGKGLEWVSGIVYSGSTYYAASVKGRFTISRDNSRNTLYLQMNSLRPEDTAIYYCSAHGGESDVWGQGTTVTVSSASGGGGSGGRASGGGGSDIVMTQTPLSLSVTPGQPASISCKSSQSLLRNDGKTPLYWYLQKAGQPPQLLIYEVSNRFSGVPDRFSGSGSGTDFTLKISRVEAEDVGAYYCMQNIQFPSFGGGTKLEIKTTTPAPRPPTPAPTIASQPLSLRPEACRPAAGGAVHTRGLDFACDIYIWAPLAGTCGVLLLSLVITLYCKRGRKKLLYIFKQPFMRPVQTTQEEDGCSCRFPEEEEGGCELRVKFSRSADAPAYKQGQNQLYNELNLGRREEYDVLDKRRGRDPEMGGKPRRKNPQEGLYNELQKDKMAEAYSEIGMKGERRRGKGHDGLYQGLSTATKDTYDALHMQALPPR
B2: BCMA-14 CAR (139113) (protein)
chain: EVQLVETGGGLVQPGGSLRLSCAVSGFALSNHGMSWVRRAPGKGLEWVSGIVYSGSTYYAASVKGRFTISRDNSRNTLYLQMNSLRPEDTAIYYCSAHGGESDVWGQGTTVTVSSASGGGGSGGRASGGGGSETTLTQSPATLSVSPGERATLSCRASQSVGSNLAWYQQKPGQGPRLLIYGASTRATGIPARFSGSGSGTEFTLTISSLQPEDFAVYYCQQYNDWLPVTFGQGTKVEIKTTTPAPRPPTPAPTIASQPLSLRPEACRPAAGGAVHTRGLDFACDIYIWAPLAGTCGVLLLSLVITLYCKRGRKKLLYIFKQPFMRPVQTTQEEDGCSCRFPEEEEGGCELRVKFSRSADAPAYKQGQNQLYNELNLGRREEYDVLDKRRGRDPEMGGKPRRKNPQEGLYNELQKDKMAEAYSEIGMKGERRRGKGHDGLYQGLSTATKDTYDALHMQALPPR
B3: BCMA-13 CAR (139112) (protein)
chain: QVQLVESGGGLVQPGGSLRLSCAVSGFALSNHGMSWVRRAPGKGLEWVSGIVYSGSTYYAASVKGRFTISRDNSRNTLYLQMNSLRPEDTAIYYCSAHGGESDVWGQGTTVTVSSASGGGGSGGRASGGGGSDIRLTQSPSPLSASVGDRVTITCQASEDINKFLNWYHQTPGKAPKLLIYDASTLQTGVPSRFSGSGSGTDFTLTINSLQPEDIGTYYCQQYESLPLTFGGGTKVEIKTTTPAPRPPTPAPTIASQPLSLRPEACRPAAGGAVHTRGLDFACDIYIWAPLAGTCGVLLLSLVITLYCKRGRKKLLYIFKQPFMRPVQTTQEEDGCSCRFPEEEEGGCELRVKFSRSADAPAYKQGQNQLYNELNLGRREEYDVLDKRRGRDPEMGGKPRRKNPQEGLYNELQKDKMAEAYSEIGMKGERRRGKGHDGLYQGLSTATKDTYDALHMQALPPR
B4: BCMA-4NP tool CAR (126021) (protein, not shown: a dimerising Fc or GST)
chain: QVQLVQSGAEVKKPGSSVKVSCKASGGTFSNYWMHWVRQAPGQGLEWMGATYRGHSDTYYNQKFKGRVTITADKSTSTAYMELSSLRSEDTAVYYCARGAIYNGYDVLDNWGQGTLVTVSSGGGGSGGGGSGGGGSGGGGSDIQMTQSPSSLSASVGDRVTITCSASQDISNYLNWYQQKPGKAPKLLIYYTSNLHSGVPSRFSGSGSGTDFTLTISSLQPEDFATYYCQQYRKLPWTFGQGTKLEIKR
B5: BCMA-8 CAR (139107) (protein)
chain: EVQLVETGGGVVQPGGSLRLSCAVSGFALSNHGMSWVRRAPGKGLEWVSGIVYSGSTYYAASVKGRFTISRDNSRNTLYLQMNSLRPEDTAIYYCSAHGGESDVWGQGTTVTVSSASGGGGSGGRASGGGGSEIVLTQSPGTLSLSPGERATLSCRASQSVGSTNLAWYQQKPGQAPRLLIYDASNRATGIPDRFSGGGSGTDFTLTISRLEPEDFAVYYCQQYGSSPPWTFGQGTKVEIKTTTPAPRPPTPAPTIASQPLSLRPEACRPAAGGAVHTRGLDFACDIYIWAPLAGTCGVLLLSLVITLYCKRGRKKLLYIFKQPFMRPVQTTQEEDGCSCRFPEEEEGGCELRVKFSRSADAPAYKQGQNQLYNELNLGRREEYDVLDKRRGRDPEMGGKPRRKNPQEGLYNELQKDKMAEAYSEIGMKGERRRGKGHDGLYQGLSTATKDTYDALHMQALPPR
B6: BCMA-15 CAR (139114) (protein)
chain: EVQLVESGGGLVQPGGSLRLSCAVSGFALSNHGMSWVRRAPGKGLEWVSGIVYSGSTYYAASVKGRFTISRDNSRNTLYLQMNSLRPEDTAIYYCSAHGGESDVWGQGTTVTVSSASGGGGSGGRASGGGGSEIVLTQSPGTLSLSPGERATLSCRASQSIGSSSLAWYQQKPGQAPRLLMYGASSRASGIPDRFSGSGSGTDFTLTISRLEPEDFAVYYCQQYAGSPPFTFGQGTKVEIKTTTPAPRPPTPAPTIASQPLSLRPEACRPAAGGAVHTRGLDFACDIYIWAPLAGTCGVLLLSLVITLYCKRGRKKLLYIFKQPFMRPVQTTQEEDGCSCRFPEEEEGGCELRVKFSRSADAPAYKQGQNQLYNELNLGRREEYDVLDKRRGRDPEMGGKPRRKNPQEGLYNELQKDKMAEAYSEIGMKGERRRGKGHDGLYQGLSTATKDTYDALHMQALPPR
B7: BCMA-9 CAR (139108) (protein)
chain: QVQLVESGGGLVKPGGSLRLSCAASGFTFSDYYMSWIRQAPGKGLEWVSYISSSGSTIYYADSVKGRFTISRDNAKNSLYLQMNSLRAEDTAVYYCARESGDGMDVWGQGTTVTVSSASGGGGSGGRASGGGGSDIQMTQSPSSLSASVGDRVTITCRASQSISSYLNWYQQKPGKAPKLLIYAASSLQSGVPSRFSGSGSGTDFTLTISSLQPEDFATYYCQQSYTLAFGQGTKVDIKTTTPAPRPPTPAPTIASQPLSLRPEACRPAAGGAVHTRGLDFACDIYIWAPLAGTCGVLLLSLVITLYCKRGRKKLLYIFKQPFMRPVQTTQEEDGCSCRFPEEEEGGCELRVKFSRSADAPAYKQGQNQLYNELNLGRREEYDVLDKRRGRDPEMGGKPRRKNPQEGLYNELQKDKMAEAYSEIGMKGERRRGKGHDGLYQGLSTATKDTYDALHMQALPPR

Target: B-cell maturation antigen (BCMA) expressed on cells (human), Q02223
Sequence (Q02223 whole entry): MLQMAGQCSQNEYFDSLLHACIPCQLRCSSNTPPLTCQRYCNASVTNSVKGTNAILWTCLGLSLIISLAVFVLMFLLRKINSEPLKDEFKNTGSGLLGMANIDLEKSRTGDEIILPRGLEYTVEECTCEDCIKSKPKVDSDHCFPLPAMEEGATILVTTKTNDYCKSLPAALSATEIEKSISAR
Test: cell-based or functional assay

Row | Binder | Cell killing EC50; KMS11-luc [not printed] | JNL binding assay, ratio to K562; K562-BCMA | JNL binding assay, ratio to K562; NCI-H929 | JNL binding assay, ratio to K562; RPMI 8226 | Proliferation, CD3 ratio to no target; K562-BCMA | Proliferation, CD3 ratio to no target; KMS11-luc | Proliferation, CD3 ratio to no target; NCI-H929 | Proliferation, CD3 ratio to no target; RPMI 8226 | Proliferation, CD4 ratio to no target; K562-BCMA | Proliferation, CD4 ratio to no target; KMS11-luc
1 | B1 | 0.22 | 3.17 | 2.78 | 3.36 | 2.9 | 2.76 | 2.98 | 3.27 | 3.42 | 2.94
2 | B2 | 0.12 | 2.81 | 2.65 | 3.31 | 4.12 | 3.42 | 3.86 | 3.93 | 5.73 | 3.97
3 | B3 | 0.11 | 3.74 | 2.68 | 3.66 | 3.47 | 3.2 | 3.46 | 3.48 | 5.4 | 3.84
4 | B4 | 0.12 | 3.15 | 2.27 | 3.54 | 5.52 | 5.41 | 6.52 | 5.83 | 8.5 | 5.54
5 | B5 | 0.14 | 3.17 | 2.67 | 3.87 | 2.55 | 2.46 | 2.17 | 2.56 | 3.59 | 3.11
6 | B6 | 0.11 | 2.91 | 2.79 | 3.49 | 3.94 | 3.51 | 4.08 | 3.73 | 4.87 | 3.82
7 | B7 | 0.68 | 1.59 | 1.99 | 1.54 | 1.51 | 1.66 | 4.63 | 2.5 | 1.59 | 1.49

Same assay, conditions: not given

Row | Binder | Proliferation, CD4 ratio to no target; NCI-H929 | Proliferation, CD4 ratio to no target; RPMI 8226 | Proliferation, CD8 ratio to no target; K562-BCMA | Proliferation, CD8 ratio to no target; KMS11-luc | Proliferation, CD8 ratio to no target; NCI-H929 | Proliferation, CD8 ratio to no target; RPMI 8226
8 | B1 | 3.41 | 3.66 | 1.51 | 2.11 | 1.76 | 2.12
9 | B2 | 5.07 | 4.84 | 2.65 | 2.83 | 2.73 | 3.03
10 | B3 | 5.05 | 4.44 | 2.34 | 2.79 | 2.53 | 2.86
11 | B4 | 8.98 | 8.5 | 3.06 | 5.2 | 4.31 | 3.49
12 | B5 | 2.98 | 3.33 | 1.59 | 1.83 | 1.41 | 1.81
13 | B6 | 4.82 | 4.24 | 1.89 | 2.73 | 2.42 | 2.51
14 | B7 | 4.45 | 2.24 | 1.43 | 1.83 | 4.79 | 2.76
